The chains are these.
B1: POU domain, class 3, transcription factor 3, residues 408 to 463; numbered along this chain, P20264 (parent)
chain: KKRTSIEVSVKGALESHFLKCPKPSAQEITNLADSLQLEKEVVRVWFCNRRQKEKR
B2: Transcription factor SOX-4, residues 60 to 127; numbered along this chain, Q06945 (parent)
chain: KRPMNAFMVWSQIERRKIMEQSPDMHNAEISKRLGKRWKLLKDSDKIPFIREAERLRLKHMADYPDYK

± gives the uncertainty stated by the source.

In the first series the parent is B1. Put plainly: abundance fitness (aPCA) (normalised: wild type 0, dead -1); higher = more abundant; growth selection in yeast, the domain comes from the species named. Particulars: Homo sapiens.
Regarding V8D, the abundance fitness is -0.075 ± 0.13.
As to V8R, the abundance fitness worked out at 0.001 ± 0.062.
For V8I, the abundance fitness was 0.1 ± 0.084.
Same read-out and setting: in the case of V8H it was -0.052 ± 0.15.
As for V8M, the abundance fitness was 0.098 ± 0.12.
In the case of V8T, the abundance fitness was determined as 0.161 ± 0.1.
With V8K, the abundance fitness stood at 0.068 ± 0.11.
Take V8Y: the abundance fitness was -0.369 ± 0.21.
As for V8G, the abundance fitness turned out to be 0.055 ± 0.063.
With V8A, the abundance fitness is -0.032 ± 0.097.
On the same count and under the same terms, in the case of V8S it was 0.218 ± 0.092; in that of V8W, -0.141 ± 0.1; in that of V8N, 0.039 ± 0.17.
Still for that read-out and setting: in the case of V8E it was 0.088 ± 0.096; in that of V8P, 0.195 ± 0.12.
Same read-out and setting: in the case of V8L it was 0.1 ± 0.08; in that of A13N, -0.274 ± 0.18.
With A13F, the abundance fitness is -0.191 ± 0.17.
Regarding A13V, the abundance fitness is 0.111 ± 0.075.
On to A13D, for which the abundance fitness was -0.355 ± 0.13.
Consider A13Q, for which the abundance fitness is -0.099 ± 0.11.
Take A13I: the abundance fitness is -0.046 ± 0.18.
On the same count and under the same terms, in the case of A13W it was -0.344 ± 0.092; in that of A13G, -0.46 ± 0.067; in that of A13T, -0.058 ± 0.096.
The same measure, in the same setting: in the case of A13S it was -0.079 ± 0.089; in that of A13P, -0.353 ± 0.12; in that of A13E, -0.081 ± 0.095.
Regarding A13R, the abundance fitness is 0.018 ± 0.064.
Same read-out and setting: in the case of A13C it was -0.199 ± 0.11; in that of A13M, -0.096 ± 0.12.
For the variant A13L, the abundance fitness is -0.093 ± 0.077.
For T4S, the abundance fitness is -0.077 ± 0.078.
T4M: the abundance fitness was -0.064 ± 0.08.
In the case of T4D, the abundance fitness is -0.279 ± 0.14.
Regarding T4Q, the abundance fitness is 0.005 ± 0.11.
Still for that read-out and setting: in the case of T4I it was -0.014 ± 0.17; in that of T4A, -0.17 ± 0.079; in that of T4H, -0.405 ± 0.23.
Turning to T4L, the abundance fitness was -0.093 ± 0.074.
As for T4V, the abundance fitness is -0.095 ± 0.073.
Consider T4Y, for which the abundance fitness is -0.19 ± 0.11.
Still for that read-out and setting: in the case of T4R it was -0.26 ± 0.067.
On to T4G, for which the abundance fitness was -0.077 ± 0.066.
Still for that read-out and setting: in the case of T4W it was -0.572 ± 0.11.
T4E: the abundance fitness was -0.082 ± 0.16.
Consider T4K, for which the abundance fitness is -0.142 ± 0.12.
On the same count and under the same terms, in the case of T4C it was -0.205 ± 0.11; in that of T4P, -0.257 ± 0.16.
Still for that read-out and setting: in the case of T4F it was -0.116 ± 0.18.

The variants in another series derive from B2. Described as above. As to conditions: Homo sapiens.
On to P65K, for which the abundance fitness amounted to 0.018 ± 0.07.
On the same count and under the same terms, in the case of Q21S it was -0.163 ± 0.064; in that of Q21M, -0.244 ± 0.1.
As to M8N, the abundance fitness is -0.242 ± 0.04.
M8I: the abundance fitness was -0.181 ± 0.044.
Still for that read-out and setting: in the case of I50S it was -0.322 ± 0.086; in that of K46W, -0.95 ± 0.11.
Turning to K46I, the abundance fitness was -0.553 ± 0.072.
K46H: the abundance fitness is -1.09 ± 0.14.
For the variant K46S, the abundance fitness is -0.901 ± 0.066.
Consider K46L, for which the abundance fitness was -0.652 ± 0.063.
In the case of K46F, the abundance fitness was -0.995 ± 0.11.
For M61Y, the abundance fitness was -0.319 ± 0.25.
M61N: the abundance fitness is -0.104 ± 0.13.
Same read-out and setting: in the case of M61C it was -0.071 ± 0.083; in that of M61A, -0.061 ± 0.067.
As for I30S, the abundance fitness is -0.858 ± 0.071.
For the variant I30W, the abundance fitness is -0.875 ± 0.089.
Same read-out and setting: in the case of I30K it was -0.999 ± 0.12; in that of I30G, -0.769 ± 0.055; in that of R55G, -0.337 ± 0.035.
As for R55C, the abundance fitness is -0.292 ± 0.056.
Same read-out and setting: in the case of P23T it was -0.593 ± 0.07.
On to P23R, for which the abundance fitness is -0.669 ± 0.048.
With R16G, the abundance fitness is -0.254 ± 0.04.
Consider R33S, for which the abundance fitness is -0.1 ± 0.07.
Take K42N: the abundance fitness is -0.212 ± 0.17.
As to A53M, the abundance fitness is -0.585 ± 0.088.
With H60V, the abundance fitness is -0.173 ± 0.053.
V9C: the abundance fitness is -0.258 ± 0.16.
Turning to V9P, the abundance fitness was -0.617 ± 0.21.
Same read-out and setting: in the case of M25E it was -0.323 ± 0.093; in that of M25Y, -0.679 ± 0.21.
Regarding M25C, the abundance fitness is -0.258 ± 0.1.
Consider M25T, for which the abundance fitness was -0.189 ± 0.078.
As for M25S, the abundance fitness is -0.416 ± 0.086.
Same read-out and setting: in the case of Y64I it was -0.109 ± 0.18; in that of Y64G, -0.008 ± 0.073; in that of P48W, -0.493 ± 0.069.
For I18S, the abundance fitness was -0.665 ± 0.13.
For the variant I18Y, the abundance fitness was -0.285 ± 0.21.
Take M19V: the abundance fitness is -0.091 ± 0.046.
M19D: the abundance fitness was -0.463 ± 0.088.
Consider K59N, for which the abundance fitness is -0.118 ± 0.061.
In the case of K59F, the abundance fitness is -0.321 ± 0.054.
In the case of K59S, the abundance fitness is -0.024 ± 0.039.
Same read-out and setting: in the case of K59P it was -0.178 ± 0.089; in that of A62F, -0.22 ± 0.059.
Take A62H: the abundance fitness was -0.175 ± 0.067.
For the variant K32G, the abundance fitness was -0.361 ± 0.038.
In the case of K32H, the abundance fitness is -0.154 ± 0.039.
In the case of P3R, the abundance fitness was -0.149 ± 0.039.
On the same count and under the same terms, in the case of P3H it was -0.055 ± 0.064; in that of P3L, -0.216 ± 0.053; in that of K17Q, -0.092 ± 0.078.
With R37I, the abundance fitness was -0.371 ± 0.21.
In the case of R37C, the abundance fitness was -0.366 ± 0.2.
The same measure, in the same setting: in the case of R37F it was -0.714 ± 0.21; in that of G35A, 0.171 ± 0.048; in that of F49Q, -0.972 ± 0.15.
K1W: the abundance fitness is -0.336 ± 0.13.
For K1Y, the abundance fitness is -0.116 ± 0.13.
Regarding K1Q, the abundance fitness was -0.788 ± 0.33.
Take K1C: the abundance fitness was -0.206 ± 0.095.
The same measure, in the same setting: in the case of I13M it was -0.228 ± 0.069.
For the variant I13L, the abundance fitness was -0.127 ± 0.062.
For the variant D45Q, the abundance fitness was -0.097 ± 0.16.
The same measure, in the same setting: in the case of D45M it was -0.395 ± 0.14; in that of D66T, -0.216 ± 0.069.
With D43Q, the abundance fitness was -0.337 ± 0.069.
For D43C, the abundance fitness is -0.37 ± 0.058.
On to D43V, for which the abundance fitness was -0.262 ± 0.039.
The same measure, in the same setting: in the case of Q12W it was -0.662 ± 0.1; in that of Q12S, -0.134 ± 0.06.
With S11N, the abundance fitness is -0.762 ± 0.099.
Consider S11P, for which the abundance fitness is -0.99 ± 0.19.
For N27R, the abundance fitness was -0.112 ± 0.044.
On the same count and under the same terms, in the case of N27A it was 0.004 ± 0.055; in that of M4T, -0.077 ± 0.065; in that of M4Q, -0.412 ± 0.11.
For the variant M4A, the abundance fitness is -0.227 ± 0.075.
As to K36N, the abundance fitness was 0.04 ± 0.24.
Regarding L58M, the abundance fitness was -0.043 ± 0.065.
As for H26D, the abundance fitness was 0.191 ± 0.094.
Consider H26Y, for which the abundance fitness is -0.652 ± 0.39.
Consider R2I, for which the abundance fitness was -0.012 ± 0.12.
For the variant R2V, the abundance fitness was -0.08 ± 0.07.
Same read-out and setting: in the case of A28E it was -0.078 ± 0.069.
For the variant A28L, the abundance fitness was -0.195 ± 0.068.
E20R: the abundance fitness was -0.364 ± 0.083.
E20L: the abundance fitness was -0.284 ± 0.076.
S22T: the abundance fitness is -0.326 ± 0.094.
With S22G, the abundance fitness was -0.4 ± 0.041.
In the case of S22H, the abundance fitness was -0.01 ± 0.061.
In the case of W10Y, the abundance fitness is -0.554 ± 0.2.
Regarding W10R, the abundance fitness was -0.649 ± 0.093.
Regarding W10L, the abundance fitness was -0.999 ± 0.12.
As for Y67K, the abundance fitness was determined as 0.116 ± 0.11.
As for E29G, the abundance fitness was -0.628 ± 0.089.
Consider R15V, for which the abundance fitness is -0.495 ± 0.044.
R15F: the abundance fitness is -0.464 ± 0.045.
Still for that read-out and setting: in the case of R15T it was -0.345 ± 0.078; in that of L40S, 0.039 ± 0.042.
Turning to L40C, the abundance fitness was -0.046 ± 0.043.
With L40H, the abundance fitness is -0.153 ± 0.14.
Regarding S44V, the abundance fitness is -0.164 ± 0.066.
Take S44E: the abundance fitness was determined as 0.119 ± 0.1.
Consider S44D, for which the abundance fitness is -0.217 ± 0.14.
The same measure, in the same setting: in the case of S44M it was -0.243 ± 0.1; in that of I47N, -0.322 ± 0.05; in that of I47D, -0.128 ± 0.054.
For I47F, the abundance fitness was -0.241 ± 0.051.
The same measure, in the same setting: in the case of I47T it was -0.178 ± 0.046; in that of I47G, -0.231 ± 0.039.
Same read-out and setting: in the case of K68Y it was -0.125 ± 0.2.
Consider D63S, for which the abundance fitness was -0.153 ± 0.036.
Same read-out and setting: in the case of D63L it was -0.208 ± 0.039.
